Source: patent US20090042250

Columns and labels:
Assay in all cases: cell_activity
[1] = tested on: ZFN 12176 (synthetic construct); settings: pair 12172/12176 (3.0 with 12170), CHO K-1, Cel-1 assay 2 days post-transfection
[2] = tested on: ZFN 12030 (synthetic construct); settings: pair 12029/12030, CHO K-1, Cel-1 assay 2 days post-transfection
[3] = tested on: ZFN 12170 (synthetic construct); settings: pair 12170/12176, CHO K-1, Cel-1 assay 2 days post-transfection
[4] = tested on: ZFN 12172 (synthetic construct); settings: pair 12172/12176, CHO K-1, Cel-1 assay 2 days post-transfection
[5] = tested on: ZFN 12029 (synthetic construct); settings: pair 12029/12030, CHO K-1, Cel-1 assay 2 days post-transfection

“AAGAAGGGTCATCAG (double strand) [FUT8 exon 10 12176 half-site]” showed an activity (% chromosomes modified) [1] of 4.4.
“AAGGACACACTG (double strand) [FUT8 12030 half-site]” gave an activity (% chromosomes modified) [2] of 3.3.
With “AAGGAGGCAAAGACAAAG (double strand) [FUT8 exon 10 12170/12172 half-site]” the activity (% chromosomes modified) [3] was 3 and the activity (% chromosomes modified) [4] was 4.4.
For “GTCTCGGATGCT (double strand) [FUT8 12029 half-site]”, the activity (% chromosomes modified) [5] was 3.3.
